For five substances, Kd results are on record in paper PMC10894068.

Among the targets are AN13A(479-594) (human); UIMC1(76-128) (human) (UniProt Q96RL1); USP37(700-851) (human) (UniProt Q86T82).
What all share (test): BLI
On the technique in general: BLI is a label-free optical method that tracks binding on a fibre tip over time.

pKd: −log10 of the molar value.

Chain of UniProt Q86T82 (Q86T82 700-851): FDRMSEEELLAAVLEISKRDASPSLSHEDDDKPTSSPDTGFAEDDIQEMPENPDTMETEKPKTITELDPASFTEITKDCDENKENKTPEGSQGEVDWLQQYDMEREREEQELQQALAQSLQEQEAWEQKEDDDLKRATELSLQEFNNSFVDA
Chain of UniProt Q96RL1 (Q96RL1 76-128): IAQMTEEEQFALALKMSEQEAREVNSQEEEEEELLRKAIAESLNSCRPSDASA

Consider “K11/K48-triUb-(1,0) (triUb-NC(1,0)) (from UniProt P0CG47 1-75; P0CG47 1-76; P0CG47 1-76) (complex)”, for which the pKd with AN13A(479-594) (human) is 5.11.
In the case of “K63/K48-triUb-(1,0) (triUb-NC(1,0)) (from UniProt P0CG47 1-75; P0CG47 1-76; P0CG47 1-76) (complex)”, the pKd was 6.13 with AN13A(479-594) (human), 5.61 with UIMC1(76-128) (human) and 5.57 in the assay with USP37(700-851) (human).
The matching figures for “K63-diUb containing a native linkage (from UniProt P0CG47 1-76) (complex)”: 6.60, 5.66 and 5.30.
The matching figures for “K11/K63-triUb-(1,0) (triUb-NC(1,0)) (from UniProt P0CG47 1-75; P0CG47 1-76; P0CG47 1-76) (complex)”: 6.37, 5.98 and 5.47.
The matching figures for “K11-diUb (from UniProt P0CG47 1-76) (complex)”: 5.89, 5.53 and 5.05.

By pKd is commonly meant the Kd on a negative log10 scale, so that one unit is a factor of ten.
